Measurements taken from the supplement of paper PMC7877785.
± gives the uncertainty stated by the source.

Experiment: self-splicing fitness, log relative to wild type (ln ratio); higher = more splicing; Tetrahymena group I intron in knt gene, E. coli kanamycin selection, DiMSum; sequences stand for … in CUCUCU…GGAGGGAAAAGUUAUCAGGCAUGCACCUGGUAGCUAGUCUUUAAACCAAUAGAUUGCAUCGGUUUAAAAGGCAAGACCGUCAAAUUGCGGGAAAGGGGUCAACAGCCGUUCAGUACCAAGUCUCAGGGGAAACUUUGAGAUGGCCUUGCAAAGGGUAUGGUAAUAAGCUGACGGACAUGGUCCUAACCACGCAGCCAAGUCCUAAGUCAACAGAUCUUCUGUUGAUAUGGAUGCAGUUCACAGACUAAAUGUCGGUCGGGGAAGAUGUAUUCUUCUCAUAAGAUAUAGUCGGACCUCUCCUUAAUGGGAGCUAGCGGAUGAAGUGAUGCAACACUGGAGCCGCUGGGAACUAAUUUGUAUGCGAAAGUAUAUUGAUUAGUUUUGGAGUACUCGUGGUCG
Procedure, shortened: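 Pooled colonies went to amplicon sequencing on an Illumina HiSeq 2500 after six replicate transformations. The plates were LB agar with 100 μg/mL carbenicillin, 50 μM IPTG and 0.2% rhamnose, with or without 25 μg/mL kanamycin, incubated overnight at 37°C or 30°C. The E. coli BL21(DE3) library had all eight P1ex-region intron nucleotides randomised, the intron placed in the knt kanamycin-resistance gene on pET-22b(+). DiMSum fitness is the error-weighted combination of replicate fold changes, kanamycin against none, normalised to wild type.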

## CUGUAGCAAUAUUACGCCAC
30 °C
  self-splicing fitness (ln): -2.54 ± 0.25
37 °C
  self-splicing fitness (ln): -2.09 ± 0.47

## CUGUAGCAAUAUUACGCCAU
30 °C
  self-splicing fitness (ln): -3.3 ± 0.34

## CUGUAGCAAUAUUACGCGGG
30 °C
  self-splicing fitness (ln): -3.04 ± 0.24
37 °C
  self-splicing fitness (ln): -2.07 ± 0.31

## CUGUAGCAAUAUUACGCUAG
30 °C
  self-splicing fitness (ln): -3.71 ± 0.21
37 °C
  self-splicing fitness (ln): -2.36 ± 0.23

## CUGUAGCAAUAUUACGGAAC
37 °C
  self-splicing fitness (ln): -2.87 ± 0.34

## CUGUAGCAAUAUUACGGAAG
30 °C
  self-splicing fitness (ln): -3.31 ± 0.16
37 °C
  self-splicing fitness (ln): -2.22 ± 0.19

## CUGUAGCAAUAUUACGGAUU
30 °C
  self-splicing fitness (ln): -3.48 ± 0.28
37 °C
  self-splicing fitness (ln): -2.7 ± 0.33

## CUGUAGCAAUAUUACGGCUG
30 °C
  self-splicing fitness (ln): -0.442 ± 0.099
37 °C
  self-splicing fitness (ln): -0.0988 ± 0.13

## CUGUAGCAAUAUUACGGCUU
30 °C
  self-splicing fitness (ln): -3.72 ± 0.25
37 °C
  self-splicing fitness (ln): -2.86 ± 0.3

## CUGUAGCAAUAUUACGGUGU
30 °C
  self-splicing fitness (ln): -3.41 ± 0.12
37 °C
  self-splicing fitness (ln): -2.88 ± 0.14

## CUGUAGCAAUAUUACGGUUA
30 °C
  self-splicing fitness (ln): -2.17 ± 0.24
37 °C
  self-splicing fitness (ln): -2.58 ± 0.36

## CUGUAGCAAUAUUACGUAAA
30 °C
  self-splicing fitness (ln): -3.52 ± 0.3
37 °C
  self-splicing fitness (ln): -1.6 ± 0.23

## CUGUAGCAAUAUUACGUAGA
30 °C
  self-splicing fitness (ln): -2.66 ± 0.12
37 °C
  self-splicing fitness (ln): -2.51 ± 0.16

## CUGUAGCAAUAUUACGUAGU
30 °C
  self-splicing fitness (ln): -4.78 ± 0.36
37 °C
  self-splicing fitness (ln): -2.65 ± 0.35

## CUGUAGCAAUAUUACGUCAG
30 °C
  self-splicing fitness (ln): -3.53 ± 0.23
37 °C
  self-splicing fitness (ln): -2.88 ± 0.34

## CUGUAGCAAUAUUACGUCCA
37 °C
  self-splicing fitness (ln): -2.89 ± 0.48

## CUGUAGCAAUAUUACGUCUG
30 °C
  self-splicing fitness (ln): -0.298 ± 0.088
37 °C
  self-splicing fitness (ln): 0.128 ± 0.1

## CUGUAGCAAUAUUACGUGAU
30 °C
  self-splicing fitness (ln): -1.56 ± 0.085
37 °C
  self-splicing fitness (ln): -0.44 ± 0.11

## CUGUAGCAAUAUUACGUGCG
30 °C
  self-splicing fitness (ln): -1.38 ± 0.08
37 °C
  self-splicing fitness (ln): -0.547 ± 0.092

## CUUAAGCAAUAUUACGAAUA
30 °C
  self-splicing fitness (ln): -2.42 ± 0.27
37 °C
  self-splicing fitness (ln): -3.17 ± 0.43

## CUUAAGCAAUAUUACGACUA
30 °C
  self-splicing fitness (ln): -1.35 ± 0.35

## CUUAAGCAAUAUUACGAGGC
30 °C
  self-splicing fitness (ln): -3.19 ± 0.32
37 °C
  self-splicing fitness (ln): -2.53 ± 0.41

## CUUAAGCAAUAUUACGAGUC
30 °C
  self-splicing fitness (ln): -3.23 ± 0.33
37 °C
  self-splicing fitness (ln): -2.33 ± 0.29

## CUUAAGCAAUAUUACGAUCA
30 °C
  self-splicing fitness (ln): -2.93 ± 0.26
37 °C
  self-splicing fitness (ln): -3.2 ± 0.33

## CUUAAGCAAUAUUACGCAAA
30 °C
  self-splicing fitness (ln): -2.76 ± 0.4

## CUUAAGCAAUAUUACGCGAU
30 °C
  self-splicing fitness (ln): -1.91 ± 0.19
37 °C
  self-splicing fitness (ln): -0.837 ± 0.18

## CUUAAGCAAUAUUACGCUCG
30 °C
  self-splicing fitness (ln): -2.09 ± 0.22
37 °C
  self-splicing fitness (ln): 0.521 ± 0.29

## CUUAAGCAAUAUUACGCUUA
30 °C
  self-splicing fitness (ln): -3.39 ± 0.32
37 °C
  self-splicing fitness (ln): -1.58 ± 0.2

## CUUAAGCAAUAUUACGGAGG
30 °C
  self-splicing fitness (ln): -2.43 ± 0.21
37 °C
  self-splicing fitness (ln): -3.19 ± 0.37

## CUUAAGCAAUAUUACGGGAU
30 °C
  self-splicing fitness (ln): -2.82 ± 0.17
37 °C
  self-splicing fitness (ln): -1.94 ± 0.19

## CUUAAGCAAUAUUACGGUAC
30 °C
  self-splicing fitness (ln): -3.99 ± 0.36
37 °C
  self-splicing fitness (ln): -3.27 ± 0.32

## CUUAAGCAAUAUUACGGUGG
30 °C
  self-splicing fitness (ln): -1.7 ± 0.092
37 °C
  self-splicing fitness (ln): -0.937 ± 0.1

## CUUAAGCAAUAUUACGGUUA
37 °C
  self-splicing fitness (ln): -2.16 ± 0.29

## CUUAAGCAAUAUUACGUACG
30 °C
  self-splicing fitness (ln): -0.58 ± 0.076
37 °C
  self-splicing fitness (ln): -0.451 ± 0.079

## CUUAAGCAAUAUUACGUCCG
30 °C
  self-splicing fitness (ln): -0.258 ± 0.11
37 °C
  self-splicing fitness (ln): 0.679 ± 0.19

## CUUAAGCAAUAUUACGUCGU
30 °C
  self-splicing fitness (ln): -4.59 ± 0.46
37 °C
  self-splicing fitness (ln): -2.22 ± 0.29

## CUUAAGCAAUAUUACGUCUA
30 °C
  self-splicing fitness (ln): -3.67 ± 0.25
37 °C
  self-splicing fitness (ln): -2.97 ± 0.23

## CUUAAGCAAUAUUACGUCUG
30 °C
  self-splicing fitness (ln): -0.605 ± 0.067
37 °C
  self-splicing fitness (ln): -0.254 ± 0.08

## CUUAAGCAAUAUUACGUGUU
30 °C
  self-splicing fitness (ln): -4.03 ± 0.15
37 °C
  self-splicing fitness (ln): -2.66 ± 0.15

## CUUAAGCAAUAUUACGUUCG
30 °C
  self-splicing fitness (ln): -1.05 ± 0.075
37 °C
  self-splicing fitness (ln): -0.0528 ± 0.099

## CUUAAGCAAUAUUACGUUGG
30 °C
  self-splicing fitness (ln): -2.67 ± 0.15
37 °C
  self-splicing fitness (ln): -2.4 ± 0.14

## CUUCAGCAAUAUUACGAAAG
30 °C
  self-splicing fitness (ln): -2.44 ± 0.077
37 °C
  self-splicing fitness (ln): -1.55 ± 0.12

## CUUCAGCAAUAUUACGAAGC
30 °C
  self-splicing fitness (ln): -2.1 ± 0.17
37 °C
  self-splicing fitness (ln): -2.43 ± 0.48

## CUUCAGCAAUAUUACGACUC
30 °C
  self-splicing fitness (ln): -2.49 ± 0.21
37 °C
  self-splicing fitness (ln): -1.46 ± 0.23

## CUUCAGCAAUAUUACGAGGU
30 °C
  self-splicing fitness (ln): -4.39 ± 0.42
37 °C
  self-splicing fitness (ln): -2.9 ± 0.27

## CUUCAGCAAUAUUACGAUAA
30 °C
  self-splicing fitness (ln): -2.68 ± 0.19
37 °C
  self-splicing fitness (ln): -1.07 ± 0.14

## CUUCAGCAAUAUUACGAUAC
30 °C
  self-splicing fitness (ln): -3.22 ± 0.19
37 °C
  self-splicing fitness (ln): -2.14 ± 0.33

## CUUCAGCAAUAUUACGCCAA
37 °C
  self-splicing fitness (ln): -2.31 ± 0.48

## CUUCAGCAAUAUUACGCCAG
30 °C
  self-splicing fitness (ln): -0.975 ± 0.11
37 °C
  self-splicing fitness (ln): -0.132 ± 0.17

## CUUCAGCAAUAUUACGCGGA
30 °C
  self-splicing fitness (ln): -1.83 ± 0.21
37 °C
  self-splicing fitness (ln): -2.74 ± 0.3
